The Human Domainome abundance scans (Beltran et al. 2025)
± gives the uncertainty stated by the source.

B1: RUN and FYVE domain-containing protein 1, residues 639 to 698; numbered along this chain, Q96T51 (parent)
chain: WLKDDEATHCRQCEKEFSISRRKHHCRNCGHIFCNTCSSNELALPSYPKPVRVCDSCHTL

Variants of: B1
Experiment: abundance fitness (aPCA) (normalised: wild type 0, dead -1); higher = more abundant; growth selection in yeast, the domain comes from the species named
Conditions: Homo sapiens

In order of rising abundance fitness:
1. WLKDDEATHCRQCEKEFSISRRKHHCRNIGHIFCNTCSSNELALPSYPKPVRVCDSCHTL [C29I]  -1.11 ± 0.11
2. WLKDDEATHCRQIEKEFSISRRKHHCRNCGHIFCNTCSSNELALPSYPKPVRVCDSCHTL [C13I]  -1.01 ± 0.28
3. WLKDDEATHCRQCEKEFSISRRKHHRRNCGHIFCNTCSSNELALPSYPKPVRVCDSCHTL [C26R]  -0.804 ± 0.076
4. WLKDDEATHCRQCEKESSISRRKHHCRNCGHIFCNTCSSNELALPSYPKPVRVCDSCHTL [F17S]  -0.709 ± 0.06
5. WLKDDEATHCRQCEKEFSISRRKHHCRNCGHIFCNTCSSNELALPSYPKPNRVCDSCHTL [V51N]  -0.695 ± 0.14
6. WLKDDEATHCRQCEKEFSISRRKHHCRNCGHIFCNTCSSNELALPSYPKPVRVCDSWHTL [C57W]  -0.682 ± 0.064
7. WLKDDEATHCRQCEKEFSISRRKHHCRNCSHIFCNTCSSNELALPSYPKPVRVCDSCHTL [G30S]  -0.503 ± 0.045
8. WLKDDEATHCRQCEKEFSISRRKIHCRNCGHIFCNTCSSNELALPSYPKPVRVCDSCHTL [H24I]  -0.443 ± 0.061
9. WLKDDEATHCRQCEKEFSISRRKHHCRNCGHIFCNTCSSNWLALPSYPKPVRVCDSCHTL [E41W]  -0.384 ± 0.074
10. WLKDDEATHCRQCEKEFSISRRKHHCRNCGHIFCNTCSSNELALPSYPKPLRVCDSCHTL [V51L]  -0.353 ± 0.046
11. WLKDDEATHCRQCEKEFSISRRKHHCRNCGHIFCNTCSSNELALPSYPYPVRVCDSCHTL [K49Y]  -0.34 ± 0.081
12. WLKDDEATHCRQCEKEFSISRRKHHCRNCGHIFCNTCSSNELAQPSYPKPVRVCDSCHTL [L44Q]  -0.3 ± 0.049
13. WLKDDEATHCRQCEKEFSISRRKHHCRNCGHIFCNTCSSNELAHPSYPKPVRVCDSCHTL [L44H]  -0.295 ± 0.067
14. WLKDDEATHCRQCEKEFSISRRKHHCRNCGHIFCNTCSSNELALASYPKPVRVCDSCHTL [P45A]  -0.277 ± 0.1
15. WLKDDEATHCRQCEKEFSISRRKHHCRNCMHIFCNTCSSNELALPSYPKPVRVCDSCHTL [G30M]  -0.264 ± 0.046
16. WLKDDEATHCRQCEKEFQISRRKHHCRNCGHIFCNTCSSNELALPSYPKPVRVCDSCHTL [S18Q]  -0.256 ± 0.075
17. WLKDDEATHCRQCEKFFSISRRKHHCRNCGHIFCNTCSSNELALPSYPKPVRVCDSCHTL [E16F]  -0.245 ± 0.074
18. WLKDDEATHCRQCEKEFSISRRKHHCRNCGHHFCNTCSSNELALPSYPKPVRVCDSCHTL [I32H]  -0.24 ± 0.18
19. WLKDDEATHCRQCEKEFSISRRIHHCRNCGHIFCNTCSSNELALPSYPKPVRVCDSCHTL [K23I]  -0.207 ± 0.086
20. WLKDDEATHCRQCEKEFSISRRKHHCRNCGHIFCNTCSSNELALPSYPQPVRVCDSCHTL [K49Q]  -0.192 ± 0.12
21. WLKDDEATHCRQCEKSFSISRRKHHCRNCGHIFCNTCSSNELALPSYPKPVRVCDSCHTL [E16S]  -0.179 ± 0.04
22. WLKDDEATHCRQCEKEFSISRRKHHCRNCGHIFCNTCSSNELALPSYKKPVRVCDSCHTL [P48K]  -0.178 ± 0.055
23. WLKDDEATHCRQCSKEFSISRRKHHCRNCGHIFCNTCSSNELALPSYPKPVRVCDSCHTL [E14S]  -0.168 ± 0.041
24. WLKDDEATHCRQCIKEFSISRRKHHCRNCGHIFCNTCSSNELALPSYPKPVRVCDSCHTL [E14I]  -0.167 ± 0.061
25. WLKDDSATHCRQCEKEFSISRRKHHCRNCGHIFCNTCSSNELALPSYPKPVRVCDSCHTL [E6S]  -0.165 ± 0.041
26. WLKDDEATHCRQCEKEFSISRRMHHCRNCGHIFCNTCSSNELALPSYPKPVRVCDSCHTL [K23M]  -0.137 ± 0.049
27. WLKDDEATHCRQCEKEFSISRRKHHCRNCGHIFCNTCSSNELALVSYPKPVRVCDSCHTL [P45V]  -0.13 ± 0.039
28. WLKDDEATHCRQCEKEFSISRRKHHCRWCGHIFCNTCSSNELALPSYPKPVRVCDSCHTL [N28W]  -0.13 ± 0.043
29. WLKDDEATHCRQCEKEFSISRRKHHCRNCGHIFCNTCRSNELALPSYPKPVRVCDSCHTL [S38R]  -0.122 ± 0.088
30. WLKDDEATHCRQCEKEFNISRRKHHCRNCGHIFCNTCSSNELALPSYPKPVRVCDSCHTL [S18N]  -0.12 ± 0.08
31. WLKDDEATHCRQCDKEFSISRRKHHCRNCGHIFCNTCSSNELALPSYPKPVRVCDSCHTL [E14D]  -0.083 ± 0.07
32. WLKDDEATHCRQCEKEFSISRRKHHCRNCGHIFCNTCSSNETALPSYPKPVRVCDSCHTL [L42T]  -0.071 ± 0.046
33. WLKDDEATHCRQCEKEFSISRRKHHCRNCGHIFCNTCSSHELALPSYPKPVRVCDSCHTL [N40H]  -0.067 ± 0.1
34. WLKDDEATHCRQCEKEFSISRRKHHCCNCGHIFCNTCSSNELALPSYPKPVRVCDSCHTL [R27C]  -0.067 ± 0.053
35. WLKDDEATHCRQCEKEFGISRRKHHCRNCGHIFCNTCSSNELALPSYPKPVRVCDSCHTL [S18G]  -0.049 ± 0.028
36. WLKDDEATHCRQCEKEFSISRRKHHCRNCGHIFCNTCSSNELPLPSYPKPVRVCDSCHTL [A43P]  0.001 ± 0.04
37. WLKDDEATHCRQCEKEFSISREKHHCRNCGHIFCNTCSSNELALPSYPKPVRVCDSCHTL [R22E]  0.014 ± 0.045
38. WLKDDEATHCRQCEKEFSISRRKHHCRNCGHIFCNTCSSNELALPSAPKPVRVCDSCHTL [Y47A]  0.014 ± 0.041
39. WLKDDEATHCRQCEKEFSISRRKHHCRNCGHIFCNTCSSNELALPSYPKPVRVCDSCHTK [L60K]  0.023 ± 0.047
40. WLKDDEAIHCRQCEKEFSISRRKHHCRNCGHIFCNTCSSNELALPSYPKPVRVCDSCHTL [T8I]  0.047 ± 0.046
41. WLKDDEATHCRQCEKEFSISRRKEHCRNCGHIFCNTCSSNELALPSYPKPVRVCDSCHTL [H24E]  0.051 ± 0.047
42. WLKDDEATHCRQCEKEFSIARRKHHCRNCGHIFCNTCSSNELALPSYPKPVRVCDSCHTL [S20A]  0.068 ± 0.035
43. WLKDDEATHCRQCEKEFSISRRKHHCRNCGHIFCWTCSSNELALPSYPKPVRVCDSCHTL [N35W]  0.088 ± 0.04
44. KLKDDEATHCRQCEKEFSISRRKHHCRNCGHIFCNTCSSNELALPSYPKPVRVCDSCHTL [W1K]  0.249 ± 0.1
45. WLKDDEATHCRQCEKEFSISRRKHHCRNCGHIFCDTCSSNELALPSYPKPVRVCDSCHTL [N35D]  0.324 ± 0.067
